We go through 15 molecules from paper PMC11090907 (2024).

The target of one assay is T1, RLuc8-L5-ALFA-tag.
T1 chain: SRLEEELRRRLTE
The experiment in a line: BRET donor saturation assay. As to conditions: chain shown with the change, HEK293T cells, 37°C; for response: Acceptor/Donor ratio 20, parent: est. 26, read off a plot; for other: BRET50: parent: 1.4 ± 0.09; for other: BRETmax: parent: 28.4 ± 0.37. For orientation: BRET reads energy transfer from a luciferase to a nearby fluorophore.

Assay [1] concerns the target T2, ALFA tag-human Fc.
T2 chain: SRLEEELRRRLTE
The experiment in a line: SPR. To be noted: chain shown with the change; for Kd: room temperature, parent: 5.0 ± 0.07 pM; for response (Response Unit): sdAb at 50 nM, parent: est. 61, read off a plot.

In assay [2] the target is T3, ALFA tag-human Fc.
T3 chain: SRLEEELRRRLTE
The experiment in a line: SPR. For orientation: Surface plasmon resonance follows binding to a sensor surface in real time, without labels.

For assay [3], the target named is T3, ALFA tag-human Fc. The experiment in a line: SPR.

One may read the Kd as the equilibrium constant for the complex coming apart. The koff is the first-order rate constant of dissociation.

Like-named read-outs stand apart in the source and are kept apart here.

B1: GFP2-L5-sdAbALFA WT S57A; E58S; R59G; R65D; D112V (protein)
chain: EVQLQESGGGLVQPGGSLRLSCTASGVTISALNAMAMGWYRQAPGERRVMVAAVASGGNAMYDESVQGRFTVTRDFTNKMVSLQMDNLKPEDTAVYYCHVLEDRVDSFHVYWGQGTQVTVSS
B1: in the assay with RLuc8-L5-ALFA-tag, the response was determined as 2 BRET ratio, the other: BRET50 stood at 12.4 and the other: BRETmax worked out at 3.3.

B2: GFP2-L5-sdAbALFA WT S57A; E58S; R59G (protein)
chain: EVQLQESGGGLVQPGGSLRLSCTASGVTISALNAMAMGWYRQAPGERRVMVAAVASGGNAMYRESVQGRFTVTRDFTNKMVSLQMDNLKPEDTAVYYCHVLEDRVDSFHDYWGQGTQVTVSS
With B2, in the assay with RLuc8-L5-ALFA-tag, the other: BRET50 was 5.2 and the other: BRETmax was 26.4.

B3: sdAb ALFA WT-TEV-His S57A; E58S (protein)
chain: EVQLQESGGGLVQPGGSLRLSCTASGVTISALNAMAMGWYRQAPGERRVMVAAVASRGNAMYRESVQGRFTVTRDFTNKMVSLQMDNLKPEDTAVYYCHVLEDRVDSFHDYWGQGTQVTVSS
As for B3, in the assay with ALFA tag-human Fc [1], the Kd amounted to 1.7 nM.

B4: GFP2-L5-sdAbALFA WT E58S (protein)
chain: EVQLQESGGGLVQPGGSLRLSCTASGVTISALNAMAMGWYRQAPGERRVMVAAVSSRGNAMYRESVQGRFTVTRDFTNKMVSLQMDNLKPEDTAVYYCHVLEDRVDSFHDYWGQGTQVTVSS
In the case of B4, in the assay with RLuc8-L5-ALFA-tag, the other: BRET50 is 2.2 and the other: BRETmax stood at 28.1.

B5: sdAb ALFA WT-TEV-His E58S (protein)
chain: EVQLQESGGGLVQPGGSLRLSCTASGVTISALNAMAMGWYRQAPGERRVMVAAVSSRGNAMYRESVQGRFTVTRDFTNKMVSLQMDNLKPEDTAVYYCHVLEDRVDSFHDYWGQGTQVTVSS
For the molecule B5, in the assay with ALFA tag-human Fc [1], the Kd was found to be 0.8 nM.

B6: sdAb ALFA SER-TEV-His (VHH)
VHH: EVQLQESGGGLVQPGGSLRLSCTASGVTISALNAMAMGWYRQAPGERRVMVAAVASGGNAMYRESVQGRFTVTRDFTNKMVSLQMDNLKPEDTAVYYCHVLEDRVDSFHDYWGQGTQVTVSS
The molecule B6 had a koff with ALFA tag-human Fc [2] of 0.011 s⁻¹.

B7: GFP2-L5-sdAbALFA WT S57A; E58S (protein)
chain: EVQLQESGGGLVQPGGSLRLSCTASGVTISALNAMAMGWYRQAPGERRVMVAAVASRGNAMYRESVQGRFTVTRDFTNKMVSLQMDNLKPEDTAVYYCHVLEDRVDSFHDYWGQGTQVTVSS
On to B7, for which, in the assay with RLuc8-L5-ALFA-tag, the other: BRET50 was 6.2 and the other: BRETmax worked out at 26.7.

B8: sdAb ALFA SE-TEV-His (VHH)
VHH: EVQLQESGGGLVQPGGSLRLSCTASGVTISALNAMAMGWYRQAPGERRVMVAAVASRGNAMYRESVQGRFTVTRDFTNKMVSLQMDNLKPEDTAVYYCHVLEDRVDSFHDYWGQGTQVTVSS
For B8, in the assay with ALFA tag-human Fc [2], the koff worked out at 0.0073 s⁻¹.

B9: GFP2-L5-sdAbALFA WT S57A; E58S; R59G; R65D (protein)
chain: EVQLQESGGGLVQPGGSLRLSCTASGVTISALNAMAMGWYRQAPGERRVMVAAVASGGNAMYDESVQGRFTVTRDFTNKMVSLQMDNLKPEDTAVYYCHVLEDRVDSFHDYWGQGTQVTVSS
For the molecule B9, in the assay with RLuc8-L5-ALFA-tag, the response worked out at 9.5 BRET ratio, the other: BRET50 came out at 9.3 and the other: BRETmax amounted to 14.

B10: sdAb ALFA SERR-TEV-His (VHH)
VHH: EVQLQESGGGLVQPGGSLRLSCTASGVTISALNAMAMGWYRQAPGERRVMVAAVASGGNAMYDESVQGRFTVTRDFTNKMVSLQMDNLKPEDTAVYYCHVLEDRVDSFHDYWGQGTQVTVSS
Regarding B10, the koff with ALFA tag-human Fc [2] is 0.026 s⁻¹.

B11: sdAb ALFA WT-TEV-His S57A; E58S; R59G (protein)
chain: EVQLQESGGGLVQPGGSLRLSCTASGVTISALNAMAMGWYRQAPGERRVMVAAVASGGNAMYRESVQGRFTVTRDFTNKMVSLQMDNLKPEDTAVYYCHVLEDRVDSFHDYWGQGTQVTVSS
In the case of B11, in the assay with ALFA tag-human Fc [1], the Kd was found to be 2.4 nM and the response (Response Unit) came to 57.

B12: sdAb ALFA WT-TEV-His S57A; E58S; R59G; R65D (protein)
chain: EVQLQESGGGLVQPGGSLRLSCTASGVTISALNAMAMGWYRQAPGERRVMVAAVASGGNAMYDESVQGRFTVTRDFTNKMVSLQMDNLKPEDTAVYYCHVLEDRVDSFHDYWGQGTQVTVSS
As to B12, in the assay with ALFA tag-human Fc [1], the Kd came out at 1130 nM and the response (Response Unit) was determined as 3.8.

B13: sdAb ALFA WT-TEV-His (VHH)
VHH: EVQLQESGGGLVQPGGSLRLSCTASGVTISALNAMAMGWYRQAPGERRVMVAAVSERGNAMYRESVQGRFTVTRDFTNKMVSLQMDNLKPEDTAVYYCHVLEDRVDSFHDYWGQGTQVTVSS
Take B13: the Kd with ALFA tag-human Fc [3] was 0.005 nM. Further, the koff in the assay with ALFA tag-human Fc [2] worked out at 2.7e-05 s⁻¹.

B14: sdAb ALFA WT-TEV-His S57A; E58S; R59G; R65D; D112V (protein)
chain: EVQLQESGGGLVQPGGSLRLSCTASGVTISALNAMAMGWYRQAPGERRVMVAAVASGGNAMYDESVQGRFTVTRDFTNKMVSLQMDNLKPEDTAVYYCHVLEDRVDSFHVYWGQGTQVTVSS
With B14, the response (Response Unit) with ALFA tag-human Fc [1] is 0.

B15: sdAb ALFA E-TEV-His (VHH)
VHH: EVQLQESGGGLVQPGGSLRLSCTASGVTISALNAMAMGWYRQAPGERRVMVAAVSSRGNAMYRESVQGRFTVTRDFTNKMVSLQMDNLKPEDTAVYYCHVLEDRVDSFHDYWGQGTQVTVSS
Molecule B15 had a koff with ALFA tag-human Fc [2] of 0.0039 s⁻¹.
